Measurements published in patent US6525022B1, “Receptor specific atrial natriuretic peptides” (Genentech, Inc., priority 1993, dated 2003).
Values belong to the molecule of their own block, whether it stands above or below them. Bridges are numbered along the chain shown (N, C = ends). Where no end group is shown, it is not given here.

Tests used:
[1] = target: human NEP (hNEP), endopeptidase 24.11 (Homo sapiens, UniProt P08473); test: in vitro; settings: Half-Life (min.)
[2] = target: human neutral endopeptidase 24.11 (human, UniProt P08473 2-750, limits assumed); test: cell-based or functional assay
human neutral endopeptidase 24.11, sequence (P08473 2-750 limits assumed): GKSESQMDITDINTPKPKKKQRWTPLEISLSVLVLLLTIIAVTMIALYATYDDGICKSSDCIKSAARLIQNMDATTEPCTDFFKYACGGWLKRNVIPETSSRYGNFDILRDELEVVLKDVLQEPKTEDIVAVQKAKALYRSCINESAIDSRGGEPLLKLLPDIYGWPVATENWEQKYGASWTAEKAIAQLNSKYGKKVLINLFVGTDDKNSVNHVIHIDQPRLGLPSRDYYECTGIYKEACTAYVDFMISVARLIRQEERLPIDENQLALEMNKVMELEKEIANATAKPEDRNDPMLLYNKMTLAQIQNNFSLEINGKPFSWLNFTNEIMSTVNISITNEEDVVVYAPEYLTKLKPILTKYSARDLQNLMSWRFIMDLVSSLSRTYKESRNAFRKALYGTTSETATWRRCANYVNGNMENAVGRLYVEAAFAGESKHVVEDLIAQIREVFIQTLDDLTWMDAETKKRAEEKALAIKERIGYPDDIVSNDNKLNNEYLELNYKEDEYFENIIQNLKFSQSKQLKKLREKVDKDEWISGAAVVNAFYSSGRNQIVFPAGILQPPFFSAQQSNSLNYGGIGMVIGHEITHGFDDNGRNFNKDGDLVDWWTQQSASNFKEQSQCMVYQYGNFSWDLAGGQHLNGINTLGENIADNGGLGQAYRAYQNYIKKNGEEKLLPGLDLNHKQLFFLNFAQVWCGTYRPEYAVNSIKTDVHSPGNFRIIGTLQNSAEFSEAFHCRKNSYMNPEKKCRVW

[3] = target: T1, human natriuretic peptide receptor-A (human, UniProt P16066 33-1061); test: competition binding, Table I; tracer and receptor format not given
T1 construct: whole, on cells; also called hNPR-A; human NPR-A
T1 sequence (looked up): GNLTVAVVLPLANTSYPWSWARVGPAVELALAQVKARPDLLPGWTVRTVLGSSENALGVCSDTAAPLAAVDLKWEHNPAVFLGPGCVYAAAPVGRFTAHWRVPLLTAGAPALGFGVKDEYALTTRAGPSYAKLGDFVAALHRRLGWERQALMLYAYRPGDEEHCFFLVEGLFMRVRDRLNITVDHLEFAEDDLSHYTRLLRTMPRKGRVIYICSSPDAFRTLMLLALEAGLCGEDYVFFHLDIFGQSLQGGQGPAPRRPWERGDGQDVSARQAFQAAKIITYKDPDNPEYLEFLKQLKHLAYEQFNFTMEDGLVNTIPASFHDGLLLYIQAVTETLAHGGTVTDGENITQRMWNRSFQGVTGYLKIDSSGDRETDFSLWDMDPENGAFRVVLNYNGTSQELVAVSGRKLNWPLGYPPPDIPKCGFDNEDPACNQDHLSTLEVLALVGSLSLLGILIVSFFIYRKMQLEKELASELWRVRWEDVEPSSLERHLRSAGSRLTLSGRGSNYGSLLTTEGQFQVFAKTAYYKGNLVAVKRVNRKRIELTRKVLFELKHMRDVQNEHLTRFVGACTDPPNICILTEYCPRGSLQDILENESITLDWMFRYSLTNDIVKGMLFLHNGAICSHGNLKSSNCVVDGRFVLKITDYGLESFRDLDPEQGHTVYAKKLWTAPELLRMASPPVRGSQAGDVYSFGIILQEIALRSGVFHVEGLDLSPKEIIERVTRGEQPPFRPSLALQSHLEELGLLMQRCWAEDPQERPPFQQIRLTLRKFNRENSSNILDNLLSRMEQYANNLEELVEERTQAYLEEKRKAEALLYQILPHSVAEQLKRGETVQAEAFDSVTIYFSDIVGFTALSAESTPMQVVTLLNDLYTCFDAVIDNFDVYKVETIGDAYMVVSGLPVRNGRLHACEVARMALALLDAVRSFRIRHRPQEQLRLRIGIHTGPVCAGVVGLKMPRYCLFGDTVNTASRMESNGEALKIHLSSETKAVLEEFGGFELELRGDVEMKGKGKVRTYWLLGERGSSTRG

[4] = target: T2, human natriuretic peptide clearance receptor-C (human, UniProt P17342 27-541); test: as above
T2 construct: whole, on cells; also called hNPR-C; human NPR-C
T2 sequence (looked up): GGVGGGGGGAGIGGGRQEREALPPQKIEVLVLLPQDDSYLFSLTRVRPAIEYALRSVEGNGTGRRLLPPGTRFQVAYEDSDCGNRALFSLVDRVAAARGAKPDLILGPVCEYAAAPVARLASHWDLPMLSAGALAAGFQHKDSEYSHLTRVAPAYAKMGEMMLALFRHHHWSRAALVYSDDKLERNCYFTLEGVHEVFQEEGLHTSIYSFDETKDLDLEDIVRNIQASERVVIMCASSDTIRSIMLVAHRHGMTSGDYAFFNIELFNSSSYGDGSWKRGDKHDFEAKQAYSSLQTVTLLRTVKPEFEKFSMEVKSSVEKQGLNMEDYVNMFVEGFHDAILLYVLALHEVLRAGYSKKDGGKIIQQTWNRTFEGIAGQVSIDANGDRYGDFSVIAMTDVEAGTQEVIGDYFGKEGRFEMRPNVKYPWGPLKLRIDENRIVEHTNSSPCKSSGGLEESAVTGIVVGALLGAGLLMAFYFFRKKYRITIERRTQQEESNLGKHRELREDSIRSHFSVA

[5] = target: T2, human natriuretic peptide clearance …; test: analysis of variants in receptor binding

human NEP (hNEP), endopeptidase 24.11, sequence (P08473 whole entry): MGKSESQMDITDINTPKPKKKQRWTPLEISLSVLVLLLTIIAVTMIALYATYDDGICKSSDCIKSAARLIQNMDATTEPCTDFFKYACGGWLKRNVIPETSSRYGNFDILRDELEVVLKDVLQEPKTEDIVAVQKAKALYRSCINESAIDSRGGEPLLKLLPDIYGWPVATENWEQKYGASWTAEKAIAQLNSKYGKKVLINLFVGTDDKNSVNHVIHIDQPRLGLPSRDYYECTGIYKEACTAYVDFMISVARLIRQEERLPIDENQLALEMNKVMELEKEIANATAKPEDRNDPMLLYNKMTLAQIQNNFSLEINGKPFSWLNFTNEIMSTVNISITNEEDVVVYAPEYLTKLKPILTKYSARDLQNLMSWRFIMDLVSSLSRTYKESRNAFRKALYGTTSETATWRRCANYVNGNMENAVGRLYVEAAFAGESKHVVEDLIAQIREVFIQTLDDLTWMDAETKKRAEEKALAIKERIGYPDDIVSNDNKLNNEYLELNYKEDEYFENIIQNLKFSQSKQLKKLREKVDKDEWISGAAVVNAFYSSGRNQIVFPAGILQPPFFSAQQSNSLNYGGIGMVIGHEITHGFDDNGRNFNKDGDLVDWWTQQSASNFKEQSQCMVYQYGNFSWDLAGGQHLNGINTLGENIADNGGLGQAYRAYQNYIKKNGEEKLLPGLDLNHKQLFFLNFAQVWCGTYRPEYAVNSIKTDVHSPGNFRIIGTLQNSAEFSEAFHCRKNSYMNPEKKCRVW

- half-life at 32 nM/ml [1]: 6.08 h
Molecule: CC[C@H](C)[C@@H]1NC(=O)[C@H](CCCNC(=N)N)NC(=O)[C@H](CC(=O)O)NC(=O)[C@H]([C@@H](C)CC)NC(=O)[C@H](CO)NC(=O)CNC(=O)[C@H]([C@@H](C)O)NC(=O)[C@H](Cc2ccccc2)NC(=O)[C@@H](N(C)C(=O)[C@H](CO)NC(=O)[C@H](CO)NC(=O)[C@H](CCCNC(=N)N)NC(=O)[C@H](CCCNC(=N)N)NC(=O)[C@H](CC(C)C)NC(=O)[C@@H](N)CO)CSSC[C@@H](C(=O)N[C@@H](CC(N)=O)C(=O)N[C@@H](CO)C(=O)N[C@@H](Cc2ccccc2)C(=O)N[C@@H](CCCNC(=N)N)C(=O)N[C@@H](Cc2ccc(O)cc2)C(=O)O)NC(=O)CNC(=O)[C@H](CC(C)C)NC(=O)CNC(=O)[C@H](CO)NC(=O)[C@H](CCC(N)=O)NC(=O)[C@H](C)NC(=O)[C@H](CCCNC(=N)N)NC1=O [ANF 82]

- Half-life at 0.075 µg/ml NEP [2]: 32.1 h
- Half-life at 0.15 µg/ml NEP [2]: 4.48 h
- IC50 [3]: 4.55 nM
- IC50 [4]: 32.2 nM
B1: ANF 51 (peptide)
peptide: SLRRSSCFERPMDRIGAQSGLGCNSFRY
modifications: disulfide 7-23
notes: Cys7-Cys23 disulfide; also called hANF(1-28) G9E, G10R, R11P

- fold reduction of affinity against wild type [5]: ~150 fold
B2: hANF(1-28) G16R (peptide)
peptide: SLRRSSCFGGRMDRIRAQSGLGCNSFRY
modifications: disulfide 7-23 (inferred)
notes: also called hANF G16R
